Results published in a protein production outcome set (Wang et al. 2014).

Assay: label from the status in PepcDB records
For “MLKTLAVANYRSINKLVIPLGRLNLVTGANGSGKSNLYRALRLLAETAQGGVVNALAKEGGLESTYWAGPEQISRRMSQGEVPIQGGPRKAARRLQLGFAGEDFGYAISLGLPDSSGHFMLPGHSSPIASRFTLDPWIKRESIWGGPLYRSASALVDRQGPMIRARAGRQWEVLAQHTSSGDSLFDRVGNLSSSPEVLHLREQIRGWRFYDHLRTDSQAPARRPQLGTRTPVLHHDGRDLAAALQTIIEVGDQQALHETISDAFPESRLEIDAVPGGLFGVQFYQEGLLRPLSAAELSDGTLRYLLLVAALLTPRPPTLMVLNEPETSLHPDLLPALARLIIRASQQCQVWVVSHARRLIAALQQDPECNCIVLEKQLGQTGIVGQRMLDEPAWNWPDLEHHHHHH”, the protein production was “failed”. With “MLKTLLTSDVIQVVSQAKDWRDAIAISCQPLIDNGAVEARYVEAIYRSHEAIGPYYVVGPGIAMPHARPEDGVNRLSLALTVITEGVTFNAEGNDPVKLLIVLAATDSNSHIEAISQLAQLFDTASDVQALLNAKTPQDILSVIARY” the protein production was “not failed”. In the case of “MLKYSNHMAFKDLREYIEFMKKKGKLIEVDDEVSVDLEIAEITRKATYAHLPPLLFKRVKNYENWKIVSNIFYSIESLYEIFGTNKLESISEGFLSNLSNMPITFFDKIKSLREILGLGKVMPKAKSPSFKEEKNLDLTKIPAIKTWPKDAGRYLTFSITITKDPETDVHNLSVYRVQILNEKEAIIHWQAFKRGALTAKKYLEKGISKIPIAVVTGVDPAIAFTAASPVPHGIDKYMFAGILRGEGIDVAELDNQLLVPSHSEVVLTGYVDLNDMRLEGPFGDHMGYYTPADYYPVFKLERVYIREDPIFHVTSVGKPPLEDAWIGKAVERIFLPFAKMLVPELIDMNLPEYGLFTGIGIFSIKKYYPGQAKRVMMALWGTGQLSLLKIIIVVDQDIDVHDINQVIYAIAANVDPKRDVWVIENALTDSLDPSVPFPPLGSKLGIDATRKFKEEMGKEWPEEVRSDEVVAKKADQILNKIIKRYQTSLEHHHHHH”, the protein production is reported as “failed”. For “MLLDYDFLLLLNDESGKPTRYYYLLQDFEKDFVAREVAQNKTKRFVKEIIGSEKASKTKNSAIEVSNTKASAMKNETIGSGDLKKVCEKIKSALPFGIISAFKPFKDAFYRDFNHNEQKLLIGAAKSGCIQSSADKLAQLKTRLLYWQDKSVKVDWDKPILIKDFFKGNNYLYRRFCFLLGKHFMDRFLKNNAKASVKDFMSSKEFVAKYRYTPKQNTERAKKLQSYLENKRDFIGFVQALNSLKDNPQDPFLPNEETSFLVFANEPTIVFNLRDYLLVLAQIFNQQAICYCESKCPIELINASPGKDFNKTQDSFPDIKFSTPNQLEQSLNALKNKLAAFFSKHPDKHNGMEFNEIAKTQIEALYMPQSSDGFDDFRKHLEESIKSFIRAKKNRYGFPKIFDVADIEQEERKVIEWREKERASKQSYKQNLQINKIANDLKRDKVVDKRTILSVIDADLDRGFIPPKDLLKQLEKISASLSKDIVIAIKQVEKLELSYALIDNIQHNTLDDTLDFTFIVGDSLSVQSLYVTFDLVIDMDRPMSEQFLNHIGELGSFESRERALEWVRLSQAKLIIETPREALKNAQLSQIEEILTGCIFNGAYRLQNDLKGNRHGNFK”, the protein production was “failed”. With “MLLLHNARILDLTDGSTGEPTDVLLSDRVLALGPEAQQQAHSARVRSIDLGGRLLMPGLWDEHVHVGQWALASRRFLVSQTASCETALEEVATHVKRREGSDEPILQGFGFRPSLWGSNPNARQLDAVTGDRAVILVSADLHSSWCNTAAMRKLGIEGDGFLREQTSFDVQTQLSQVNPHVLDGWVGSCSTAAARLGITGIRDMEFSTDVETWLQRKADGRCPLRVEVSVYPERLDEAIAQVLATGQAPATDKPGPSRVAMGPLKVIVDGSMSTRTAWCMDSYPAGAGPDGAGIDSVTPEDLVDLMNRAKTGNLQCAAHAIGDRAAKEVLNAFEVTGISGSIEHAQVLTDADVRRFAALGVRASVQPLHLVDDRDATDVMWSDRADRCFRFADMVRAGTELALGSDAPVSPVDPWGAIRVAVERTGDRRPSWHPEQALTLSQAITASTRHVTQVVTGGPGDVIAVAHNPFDLSGNALAGITSDLTVVGGEVTAAAL” the protein production was “failed”. In the case of “MLLLTPGPTPIPERVQKALLRPMRGHLDPEVLRVNRAIQERLAALFDPGEGALVAALAGSGSLGMEAGLANLDRGPVLVLVNGAFSQRVAEMAALHGLDPEVLDFPPGEPVDPEAVARALKRRRYRMVALVHGETSTGVLNPAEAIGALAKEAGALFFLDAVTTLGMLPFSMRAMGVDYAFTGSQKCLSAPPGLAPIAASLEARKAFTGKRGWYLDLARVAEHWERGGYHHTTPVLLHYALLEALDLVLEEGVAARERRAREVYAWVLEELKARGFRPYPKASPLPTVLVVRPPEGVDADRLVRALYAEGVAVAGGIGPTRGQVLRLGLMGEGARREAYQAFLKALDRALALA”, the protein production is reported as “not failed”. With “MLLLWLVVLVLGVAYLAHRRTPPAPALGISAAYLILMGVFSHAPGWLLLVFWLLWLAVALPLALPDLRRRVLSGPLFAWFQKVLPPMSDTEREAIEAGTVWWDGELFSGRPDWQKLLDYPKAQLTEEEQAFVDGPTEELCAMVSDWDIGQRMDLPEEAWAFIKQHGFFGLIIPKEYGGKGFSAFAHSQVVMKLATRSGDLASTVMVPNSLGPAELLLHYGTDEQRQRYLPSLAKGDDIPCFALTGPYAGSDAGGMTDVGIVCKGEWEGREVLGLRLTWEKRYITLGPVATLLGLAFKCHDPDHLLGDEEDLGITLALIPTDTPGVEIGRRHVPLGAAFMNGPNSGKDVFVPLEYIIGGQEMIGKGWMMLMNCLSVGRSISLPAVGTSAGKASSYVSGRYAQVREQFNVPIAAFEGIQEALARIGGNAWLMDSARILTANAVDLGEKPSVLSAILKYHLTERGRECIAHAMDIHGGKGIIMGPNNYLGRSWQGAPIFITVEGANILSRNLMIFGQGAIRCHPYVLKEMELAQREDKDQAAREFDALLVKHIGFAVGNAASSFLLSLSCGHLGNAPGDRISRPYFRALNRLAASFALLADFSMMLLGGELKRKERLSARLGDVLSYLYLGSAALKRYHDLGNPDYLHPLLRWAMEENLGKAEAALEDLLNNFPSRFFGCALKVLVLPFGRRHKGPGDELDAEIAEILGRPDDDPALQAILAGAFLPKDPQDPVGALAHAFDAVRESAALEKTLHKAIKEGRVQPQAGQNPIDAGAAAGVLSAEQAQALHQAEAARRKVIDVDDFAKEELQLADGRIR” the protein production was “failed”. For “MLLSHAFGLFTHPEDEWVSIKKEHEHPTRLYVAYVVVLAAIAPICAYISTAHFGWSIGSERLIKLTEISALQMSVLTYLAMLVGVFALGYAINWMAKTYGAKEEHVPSNGIALAAYSCTPLFLAGFALLYPVPWFNAVVFLAAACYGAWLMYDGLPIVMGIEKERAVMYGGALLTVALVILVSTRVGSVILWNLGLGPVFVSG”, the protein production was “failed”. With “MLLSSCQSLFSPAYQSTLRPSDNPQTVEQVQKNDPRAQMGAREHPRIVASYGGEYRDAKTERLVARIAGALTAVSENPQQSYRITILNSPAINAFALPGGYLYVTRGLLALANDASEVAAVLSHEMGHVTANHGIERQRREEAEVIASRVVAEVLSSDLAGKQALARGKLRLAAFSRQQELQADVIGVRMLGEAGYDPYASPRFLDSMAAYARFSSADPENDQSLDFLSSHPNTPQRIELARRHARAFGQEGQVGDRGRDWFLDGIDGLLYGDSPQEGYVRGQTFLHGTLGIRFDVPEGFVIDNKVEAVLATGPGDMAIRFDGVADPKQTSLANYLTSGWVAGLLPETVKETQINGLEAATARASADKWDFDVTVIRVGQQIFRFLTAVPKGNTQLDSIANVLRTSFRKMTPQEIASLKPLRVRVVTVKPGETVATMAARMMGTERKLDMFRMINAMSATATLQPGQRVKIISELEHHHHHH” the protein production was “failed”. With “MLLTATLLGLIAALGILDGRLLGVSMIDRPLVMCALTGLVCGNLHEGILIGATLELIFLGNVAIGAAVPPDVVTGSVLATAFSIMSGRGPEAALTIAIPISMLAQTLGVLVRVVNARFGHMADRYAAQGNTRMVAVMHLGGPTLLYFLSGFLPVFFAILLGSAAVTWFLDAIPAFITNGLVVASKILPALGFALLISMMLSSKLMPYLGLGFLIAAYTKLDIIAIALFAVVLAFIISQFLNTSQQEG” the protein production was “failed”. In the case of “MLLTIIYIIAITAEAMTGALSAGRRSMDWFGVILIACVTALGGGSVRDVLLGHYPLTWVKHPEYLVLTCCAALFTILIAKWMRHLRNIFLILDALGLIGFTIIGCQIALQMGHGFVVSAVAGVLTGVSGGILRDILCNDVPLVFRRELYASISFVAVICYWLCLNIGMSLELTVIFTLIFGFVLRLIAIYFGLEMPKFIYQEDDADSASSTDKH”, the protein production is reported as “failed”.
